What was measured:
Experiment in all cases: SEC-MALS
[1] = target: CdChdC variant H118A/Y135A (Corynebacterium diphtheriae) (UniProt Q6NGV6)
[2] = target: CdChdC variant Y135A (Corynebacterium diphtheriae) (UniProt Q6NGV6)
[3] = target: CdChdC variant H118A (Corynebacterium diphtheriae) (UniProt Q6NGV6)
SEC-MALS = target: the molecule itself

For “CdChdC variant H118A/Y135A (from UniProt Q6NGV6 1-234) (enzyme)”, the stoichiometry N [1] was 5.

With “CdChdC variant Y135A (from UniProt Q6NGV6 1-234) (enzyme)” the stoichiometry N [2] was 5.

“CdChdC variant H118A (from UniProt Q6NGV6 1-234) (enzyme)” showed a stoichiometry N [3] of 5.

B1: coproheme decarboxylase from Corynebacterium diphtheriae (CdChdC), wild-type (enzyme)
chain: MAEKLNFEELNSMQRYSQFAVFRAIPGALGSDRAEIVAQAQSFFDGLETAGKVEVRGIYDLAGCRAEADFMIWWIAEEFEEIQAAFARFRRETVLGQVSEVAWLGNSLHRPAEFNRSHLPSFIMGEIPGDWITVYPFVRSYDWYIMDPQKRRKILAEHGQAARDFPDVRANTVPAFALGDYEWMLAFEAPRLDRIVDLMHKMRYTEARLHVREETPFFTGRRVSEVSELVNVLP
With B1 the “stoichiometry N” value (SEC-MALS) was 5.

Reference: article PMC7235987 (ACS Catalysis, 2020)
